The text below walks through data of the nanobody polyreactivity screen of Harvey et al. (2022).

The nature of this data set: yeast display, Sf9 membrane polyspecificity reagent, FACS + sequencing; frameworks hold sequencing errors. The procedure, abridged:
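After 36–48 hours of galactose induction, yeast (Saccharomyces cerevisiae BJ5465) displaying a synthetic nanobody library were stained at 4 °C for 1 hour with 10% biotinylated, detergent-solubilized Sf9 membrane reagent. Streptavidin microbeads enriched the stained cells before FACS sorting into low and high (top ~1%) gates on anti-HA and streptavidin fluorescence. Each clone's polyreactivity label reflects its gate of origin.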
Consider “QVQLVESGGGLVQAGVSLRLSCAASGRIFFPNGMGCYRQAPGKESELVATISRIGGSTYYADSVKGRFTISRDNAKNTVYLQMNSLKPEDTAVYYFAAQYSYGVYWTLPYGYNYWGQGTQVTVSS”, for which the “polyreactivity (PSR sort gate)” value is “low polyreactivity”.

As for “QVQLVESGGGLVQAGGSLRLSCAASGRTFSKYAMGWYRQAPGKERELVAAITDGRGDTYYADSVKGRFTISRDNEKNTVYLQMNSLKPEDTAVYYCAADPGYSLYEYWGQGTQVTVSS”, the “polyreactivity (PSR sort gate)” value was “low polyreactivity”. For “QVQLVESGGGLVQAGGSLRLSCAASGFIFATNAMGWYIQAPGKERELVAAITWSGATTYYADSVKGRFTISRDNAKNTVYLQMNSLKPEDTAVYYCAARRYVYGSPYSTYRYGYWGQGTQVTVSS” the value was “high polyreactivity”; for “QVHLVESGGGLVQAGGSLRLSCAASGGTFYYNTMGWYRQAPGKERELVAAITSGTSTNYADSVKGRFTISRDNAKNTVYLQMNSLIPEDTAGYYCAADPDADDPRRGYDYWGQGTQVTVSS”, “low polyreactivity”; for “QDQLVESGGGLVQAGGSLRLSCAASGRTFRRNAMGWYRPAPGKERELVAAITSSGGSTYYADSVKGRFTISRDNAKNTVYLQMNSLKPEDTAVYYCNAVGKPQSSQYYYWGQGTQVTVSS”, “high polyreactivity”. With “QVQLVESGGGLVQAGGSLRLSCAASGFSFKYYAMGWYRQAPGKERELVATIRRGGSTYADSVKGRFTISRDNAKNSVYLQMNSLKPDDTAVYYCATRISSSTVPLYYFSGYNYWGQGTQVTVSS”, the “polyreactivity (PSR sort gate)” value is recorded as “high polyreactivity”.

“QVQLVESGGGLVQAGGSLRLSCAASGFTFSYNAMGWYRQAPGKERELVAVIKSSGGRTYYADSVKGRFTISRDNAKNTVYLQMNSLKPEDTAVYYCNAVYLQHRYRMYYWGQGTQVTVSS”: the “polyreactivity (PSR sort gate)” value is given as “high polyreactivity”. For “LVQLVESGGGLVQAGGSLRLSCAASGSTFDYYAMGWYRQAPGQERELVAAISGSGDRTYYADSVKGRFTISRDNAKNTVYLQMNSLKPEDTAVYYCAKYGRTRFYYWGQGTQVTVSS” the value was “high polyreactivity”.

Regarding “QVQLVESGGGLVQAGGSLRLSCAASGFIFWINAMGWYRQAPGKERELVAAITKNGGTTYYADSVKGRFTISRDNAKNTVYLLMNSLKPEDTAVYYCAAGGIGGDQEVEGPMNYWGQGTQVTVSS”, the “polyreactivity (PSR sort gate)” value is given as “low polyreactivity”.

Take “QVQLVESGGGLVQAGGSLRLSCAASGSIFAPNAMGWYRHAPGKERELVAAISRSGGRTYYADSVKGRFTISRDNAKNTVYLQMNSLKPEDTAVYYCAADYKHQRTYGSWGQGTQVTVSS”: the “polyreactivity (PSR sort gate)” value is listed as “high polyreactivity”.

With “QVQLVESGGGLVQAGGSLRLSFAASGIIFDLYAMGWYRQAPGKERELVAAITRSVGSTYYADSVKGRFTISRDNAKNTVYLQMNSLKPEDTAVYFCAAVRFAYGYTYDYWGQGTQVTVSS”, the “polyreactivity (PSR sort gate)” value was “high polyreactivity”. For the sequence “QVQLVESGGGLVQAGGSLRLSCASSGRTFYRNAMGWYRQAPGKERELVAAITSGGSTYYADSVKGRFTISRDNAKNTVYLQMNSLKPEDNAVYYCAKRIGWVPSRSWTPAFWGQGTQVNVSS”, the “polyreactivity (PSR sort gate)” value was “low polyreactivity”. For “QVQLVESGGGLVQAGGSLRLSCAASGRIFVSNAMGWYRQAPGKERELVAAISKSGGRTYYADSVKGRFTISRDNAKNTVYLQMNSLKPEDTAVYYCAARSRVSPRYDYWGQGTQVTVSS” the value was “high polyreactivity”. For “QVQLVESGGGLVQAGGSLRLSCAASGRIYVYAMGWYRQAPGKEREMVAAITASDGSTYYADSVKGRFTISRDNAKNTVYLQMNSLKPEDTAVYYCAADIYEHNYYGYYYWGQGTKVTVSS” the value was “high polyreactivity”; for “QVHLVESGGGLVQAGGSLRLSCAASGSTFVNYTMGWYIQAPGKERELVAITIGAGRTYYADSVKGRFTISRDNAKNTVYLPMNSLKPEDTAVYYCAVRLYANSGRFDYWGQGTQVTVSS”, “low polyreactivity”.

With “QVQLVESGGGLVQAGGSLRLSCAASGRIIRRYAMGWYRQAPGKERELVAAISRSGGSTYYADSVKGRFTISRDNAKNTVFLQMKRLKPEDTAVYYCNRRYITYNYDYWGQVTQVTVSS”, the “polyreactivity (PSR sort gate)” value is given as “high polyreactivity”. On to “QVQLVESGGGLVQAGGSLRLSCAASGRIFGAYAMGWYRQATGKERELVAAIRWSGARTYYADSVKGRFTISRDNAKNTVYLQMNSLKPEDTAVYYCATRQAYRPLKFDYWGQGTQVTVSS”, for which the “polyreactivity (PSR sort gate)” value is “high polyreactivity”.

Take “QVQLVESGGGLVQAGGSLRLSCAASGRIFFPYAMGWYRQAPGKERELVAAINYSGGSTYYADSVKGRFTISRDNAKYTVYLQMNSLKPEDTAVYYCAKEYGKAYDYWGQGTLVTVSS”: the “polyreactivity (PSR sort gate)” value is “high polyreactivity”.

As to “QVQLVESGGGLVQAGGSLRLSCAASGFIFNYNTMGWYRQAPGKERELVAAISFSGGSTYYADSVKGRFTISRDNAKNTVYLQMNSLKPEDTAVYYCATRNGRQYSVSYRYYYWGQGTQVTVSS”, the “polyreactivity (PSR sort gate)” value is “low polyreactivity”. With “QVQLVESGGGLVQAGGSLRLSCAASGFTFLGYAMGWYRKAPGKERELDASITYGGDSTYYADSVKARFTISRDNAKNTFYLEMISLKPEDTAVYYCNARPSYWWGGRLYGYWGQGSQVTVSS”, the “polyreactivity (PSR sort gate)” value is recorded as “high polyreactivity”. For “QVQLVESGGGLVQAGGSLRLSCASSGFIFWYYAMGWYRQAPGKERELVAAISSGDSKNYADSVKGRFTISRDNAKNTVYLQMNCLKPEDTAVYYCAARQPRTQAVYEGYYWGHGTQVTVSS” the value was “high polyreactivity”; for “QVHLVESGGGLVQAGGSLRLSCAASGFIFAGYTMGWYRQAPRKERELVAAINSGGSTKYADSVKGRFTISRDNAKNTVYLQMNSLKPEDTAVSYCNADYGWYFLFDYWGQGTQVTVSS”, “low polyreactivity”; for “QVQLVESGGGLVQAGGSLRLSCAASGSIFKSNAMGWYRQAPGKERELVAGISWGGGSTYYADSVKGRFTISRDNAKNTVYLQMNSLKPEDTAVYYCAAYVYYRPSALAVTGDYYWGQGTQVTVSS”, “low polyreactivity”. As to “QVQLVESGGGVVQAGGSLRLSCAASGSTFTTNAMGWYRQAPGKDREFVAAIRRTSGRTYYADSVKGRFTISRDNAKNTVYLQMNSLKPEDTAVFYCATDSYSPYGLKSRYDYWGQGTQVTVSS”, the “polyreactivity (PSR sort gate)” value is given as “high polyreactivity”. For “QVQLVESGGGLVQAGGSIRLIWAASGSTVPSYTMGWYRQAPGKERELVAAISGSGGSTYYADSVKGRFTISRDNAKNTVYLQMNSLKPEDTAVYSCAADYRLQLSYAFGDDYWGQGPQVTVSS”, the “polyreactivity (PSR sort gate)” value is listed as “low polyreactivity”.

As to “QVQLVESGGGLVQAGGSLRLRCAASGFIFIFNAMGWYRQAPGKERELLAAIDTSDDSTYYADSVKGRFTISRDNAKNTVYLQMNSLYPEDTAVYYCAAEELSNYEYWGQGTQVSVSS”, the “polyreactivity (PSR sort gate)” value is reported as “low polyreactivity”. As for “QVQLVESGGGLVQAGGSLRLSCASSGLIFRVYNMGWYRQAPGKERELVAAITGRGGRTYYADSVKGRFTISRDNAKNTVYLQMNSLKPEDTSVYYCATGGRFQQAAYTGFNYWGQGTQVTVSS”, the “polyreactivity (PSR sort gate)” value is given as “high polyreactivity”.

“QVQLVESGGGLVQAGGSLRLSCAASGGTFRRYTMGWYTQAPGKVRELVAAITTSGGSTYYADSVKGRFTISRDNAKNTVYLQMNSLKPEDTAVYYCAATRRYSGDYWGQGTQVTVSS”: the “polyreactivity (PSR sort gate)” value was “high polyreactivity”. For “QVQLVESGGGLVQAGGSLRLSCAASGRTFYANAMGWYRQAPGKERELVASITTSGGTYYADSVKGRFTISRDNAKNTVYLQMNSLKPEDTAVYYCAAEVYRSIGYDYWGQGTQVTVSS”, the “polyreactivity (PSR sort gate)” value was “low polyreactivity”.

Regarding “QVRLVESGGGLGQAGGSLRLSCAASGPIFDTNAMGWYRQAPGKERELVAAISYIGGGTYYADSVKGRFTISRDNAKNTVYLQMNSLKPEDTAVYYCAAEQIYVFFGDWMEYWGQGTQVTVSS”, the “polyreactivity (PSR sort gate)” value was “low polyreactivity”. For “QVQLVESGGGLVQAGGSLRLSCAASGRTIGLYDMGWYRQAHGKERELVAGITRRGGRTYYADSVKGRFTISRDNAKNSVYLQMNSLKPEDTAVYYCAAGTIYLRHAQSPFDYWGQGTQGTVSS” the value was “high polyreactivity”. Next, “QDQLVESGGGLVQAGGSLRLSCAASGRTFIRNAMGWYRPAPGKERELVAAISRSGGRTYYADSVKGRFTISRDNAKNTVYLQMNSLKPEDTAVYYCAAGSYQRYAFDYWGQGTQVTVSS”: “high polyreactivity”; “QVQIVESGGGLVQAGRSLRLSCAASGIIFDHYAMGWYRQAPGKERELVAAITTGGGNTYYADSVKGRFTISRDNAKNTVYLQMNCLKPEDTAVYYCNDDGLWGRRWGDYYGYDYWGQGTQVTVSS”: “low polyreactivity”. In the case of “QVQLVDSGGGLVQAGGSLRLSCAASGFILGSNVMGWYRQAPGIERELVAAISYSGGSTYYADSVKGRFTISRDNAMNTVYLQMNILKPEDTAVYYCNARPSDVWYYYWGQGTQVTVSS”, the “polyreactivity (PSR sort gate)” value is given as “low polyreactivity”. For “QVKLVESGGGLVQAGGSLRLSLQPPDSPSTTMLWDGIDRRLAKKGSWLPVFLPSGGTTYADSVKGRFTISRDNAKYTVYLQMNSLKPEDTAVYYCNADLSDVAVTDHDYWGQVTQVTVSS” the value was “low polyreactivity”; for “QVQLVESGGGLVQAGGSLRLSCAASGFTFRAYAMGWYRQAPGKERELVAGISGSGGRTYYADSVKGRFTISRDNAKNTVYLQMNSLKPEDTAVYYCAAEYRLYGYQYDYWGQGTQVTVSS”, “high polyreactivity”. Next, “QVQLVESGGGLVQAGGSLRLSCAASGSTFDIYAMGWYRQAPGKERELVAAITGSSGSTYYADSVKGRFTISRDNAKNTVYLQMNSLKPEDTAVYYCAADIVRVSTVPSLVYSYYWGQGTQVTVSS”: “low polyreactivity”.

“QVQLVESGGGLGQAGGSLRLSCAASGRIFGVYGMGWYRQAPGNDRELVAAITLAGRTNYADSVKGRFTISRDNAKNTVYLQMNSLKPQDTAVYYCAAEKRKLFQGVARYRYEDWGQGTQVTVSS”: the “polyreactivity (PSR sort gate)” value was “low polyreactivity”.

Regarding “QVQLVESGGGLVQAGGSLRLSCAASGRIVYSNAMVWYRQAPGKERELVASITRGSRTNYADSVKGRFTISRDNAKHSVYLPMNSLKPEDTAVYYCARRYLLKPGFGRFYYWGQGNQVTVSS”, the “polyreactivity (PSR sort gate)” value was “high polyreactivity”.

As for “QVQLVESGGGLVQAGGSLRLSCAASGYIYDYNAMGWYRQAPGKERELVAAITFRDGSTYADSVKGRFTISRDNGKNTVYLQMNSLKPEDTAVYYCNRRSQVHSHSKHDDWGQGTQVTVSS”, the “polyreactivity (PSR sort gate)” value is reported as “low polyreactivity”. Next, “QVQLVESGRGLVQAGGSLRLSCAASGLTFRVYAMGWYRQAPGKERELVAAITGGGGSTYADSVKGRFTISRDNAKNTVYLQMNSLKPQDTAVYYCNKKGYYYKFDYWGQGTQVTVSS”: “low polyreactivity”.
